From article PMC5906529, “Conserved Bacterial-Binding Peptides of the Scavenger-Like Human Lymphocyte Receptor CD6 Protect From Mouse Experimental Sepsis” (Frontiers in Immunology, 2018)
Read-outs that look alike come from different tables or passages of the source.

B1: rshCD6: recombinant soluble human CD6 ectodomain (protein, UniProt P30203 18-402, looked up)
extracellular domain: HPSPAPPDQLNTSSAESELWEPGERLPVRLTNGSSSCSGTVEVRLEASWEPACGALWDSRAAEAVCRALGCGGAEAASQLAPPTPELPPPPAAGNTSVAANATLAGAPALLCSGAEWRLCEVVEHACRSDGRRARVTCAENRALRLVDGGGACAGRVEMLEHGEWGSVCDDTWDLEDAHVVCRQLGCGWAVQALPGLHFTPGRGPIHRDQVNCSGAEAYLWDCPGLPGQHYCGHKEDAGAVCSEHQSWRLTGGADRCEGQVEVHFRGVWNTVCDSEWYPSEAKVLCQSLGCGTAVERPKGLPHSLSGRMYYSCNGEELTLSNCSWRFNNSNLCSQSLAARVLCSASRSLHNLSTPEVPASVQTVTIESSVTVKIENKESRELMLL
modifications: extracellular domain
notes: recombinant soluble human CD6 ectodomain
B2: CD6.PD3 peptide (peptide)
peptide: GQVEVHFRGVW
notes: source: synthetic peptide, manufactured by ProteoGenix (>80% purity)
B3: rshCD5: recombinant soluble human CD5 protein, negative control (protein, UniProt P06127 25-372, looked up)
extracellular domain: RLSWYDPDFQARLTRSNSKCQGQLEVYLKDGWHMVCSQSWGRSSKQWEDPSQASKVCQRLNCGVPLSLGPFLVTYTPQSSIICYGQLGSFSNCSHSRNDMCHSLGLTCLEPQKTTPPTTRPPPTTTPEPTAPPRLQLVAQSGGQHCAGVVEFYSGSLGGTISYEAQDKTQDLENFLCNNLQCGSFLKHLPETEAGRAQDPGEPREHQPLPIQWKIQNSSCTSLEHCFRKIKPQKSGRVLALLCSGFQPKVQSRLVGGSSICEGTVEVRQGAQWAALCDSSSARSSLRWEEVCREQQCGSVNSYRVLDAGDPTSRGLFCPHQKLSQCHELWERNSYCKKVFVTCQDPNP
modifications: extracellular domain
notes: recombinant soluble human CD5 protein, negative control

What was measured:
[1] = Endotoxin adsorption on coated Eupergit beads (LAL assay); conditions: peptide/protein immobilized on Eupergit beads, 50 UI/mL LPS, 0–150 min, room temperature, vs HSA- and rshCD5-coated controls, preliminary
Description: CD6.PD1 and CD6.PD2 high affinity (and also CD6.PD3) to LPS and LTA makes these peptides suitable candidates for new supportive non-antibiotic strategies against sepsis. One such possibility would be the adsorption of circulating bacterial toxins by CD6-derived peptides covalently coupled to a solid phase. Preliminary results obtained by incubating an endotoxin solution (50 UI/mL LPS) with Eupergit® beads coated with different CD6-derived peptides (CD6.PD2 and CD6.PD3) or proteins (HSA, rshCD5, and rshCD6) for different periods of time support this approach (Figure S2 in Supplementary Material). […]
Supplementary Figure S1. Binding of rshCD6 protein, and CD6 (CD6.PD1, CD6.PD2, and CD6.PD3) and DMBT-1/SAG (pbs1)-derived peptides to LPS and LTA determined by tryptophan fluorescence. […] Peptide samples (with and without either Re-LPS or LTA) and blank samples (Re-LPS or LT A alone) were ex cited at 295 nm, and the emission spectra recorded from 300 to 400 nm. Results are expressed as the change in peptide fluorescence ( ΔF) at the wavelength of the emission maxima (353 nm for the peptides and 337 nm for rshCD6 protein) in the presence and absence of either Re- LPS or LT A. Results are means ± SD of 3 experiments. Peptide fluorescence changes at 353 nm were fitt ed to the Hill equation. […]

[2] = Intrinsic (tryptophan) fluorescence binding; parameters: species or system Salmonella minnesota serotype Re 595; conditions: excitation 295 nm, peptide/protein 10 µg/mL in PBS pH 7.2, Hill equation fit, mean ± SD of three experiments, read-out: Re-LPS Kd ± σ (apparent Kd)
Description: (§1) To explore the ability of different peptides/proteins to bind LTA (Mr = 14,000, from S. aureus; Sigma) and rough LPS (Re-LPS, Mr = 2,500, from Salmonella minnesota serotype Re 595; Sigma), binding studies were carried out in an AB2 spectrofluorometer with a thermostated cuvette holder (±0.1°C), using 5 mm × 5 mm path length quartz cuvettes as described ([30]). Re-LPS concentration was assessed by quantification of 2-keto-3-deoxyoctulosonic acid ([31]). Peptide/protein samples (10 µg/mL) were titrated with different amounts of a stock solution of either LTA or Re-LPS in phosphate buffered saline (PBS) pH 7.2, and the Trp fluorescence emission spectra recorded with excitation at 295 nm. The fluorescence intensity readings were corrected for the dilution caused by […]. […] The apparent dissociation constant (Kd) of peptide/protein–ligand complexes were obtained by non-linear least-squares fitting to the Hill equation of the change in peptide fluorescence at 353 nm with the amount of added LTA or Re-LPS ([31]): ΔF/ΔFmax = [L]^n/([L]^n + Kd), where ΔF is the change in fluorescence intensity at 353 nm relative to the intensity of free peptide; ΔFmax is the change in fluorescence intensity at saturating LTA or Re-LPS concentrations; [L] is the molar concentration of free ligand; and n is the Hill coefficient. […]

[3] = Solid phase binding assay (ELISA); parameters: species or system E. coli O111:B4; conditions: biotin-labeled peptides/proteins 5–20 µg/mL, overnight 4°C, HRP-streptavidin/TMB, OD 405–620 nm
Description: (§2) 96-well microtiter plates (Nunc, Roskilde, Denmark) were coated overnight at 4°C with 5 µg/mL of purified LPS (from E. coli O111:B4, Sigma L2630) or LTA (from S. aureus, Sigma L2515) in PBS and then incubated for 2 h at room temperature in blocking solution (20 mM Tris-HCl pH 7.4 plus 0.05% Tween 20 and 1% BSA). Biotin-labeled peptides/proteins (2.5–20 µg/mL) were added and incubated overnight at 4°C in blocking solution. After extensive washing, bound peptides/proteins were detected by the addition of horseradish peroxidase-labeled streptavidin (1:5,000 dilution; DAKO) for 1 h at room temperature. Color was developed by adding 3,3’,5,5’-tetramethylbenzidine liquid substrate (Sigma) and optical density read at 405–620 nm.
(§3) Figure 3 Analysis of the direct binding characteristics of CD6-derived peptides to purified pathogen-associated molecular patterns (PAMPs) from Gram-negative and Gram-positive origin. […] Following overnight incubation at 4°C bound peptides or proteins were developed by addition of horseradish peroxidase–streptavidin and 3,3’,5,5’-tetramethylbenzidine substrate and further readings at OD 405–620 nm. Results are expressed as mean ± SD of duplicates from one representative experiment of three performed. […] (C) Apparent Kd values and Hill coefficients for the binding of peptides and proteins in study to LPS and LTA determined by tryptophan fluorescence. […]

[4] = Solid phase binding assay (ELISA); parameters: species or system S. aureus; conditions: biotin-labeled peptides/proteins 5–20 µg/mL, overnight 4°C, HRP-streptavidin/TMB, OD 405–620 nm
Description: as §2, §3

[5] = Intrinsic (tryptophan) fluorescence binding; parameters: species or system S. aureus; conditions: excitation 295 nm, peptide/protein 10 µg/mL in PBS pH 7.2, Hill equation fit, mean ± SD of three experiments, read-out: LTA Kd ± σ (apparent Kd)
Description: as §1

[6] = target: the molecule itself; test: dynamic light scattering; peptide alone, 10 µg/mL in PBS, 25°C, Zetasizer Nano S; hydrodynamic diameter of the particles in solution

Row | Molecule | Endotoxin levels after incubation with coated beads [1] | Kd [2] | Binding to solid-phase bound LPS [3] | Binding to solid-phase bound LTA [4] | Kd [5] | binding result [6]
1 | B1 | reduced endotoxin levels | 630 ± 10 nM | dose-dependent binding | dose-dependent binding | 11 ± 4 nM | 
2 | B2 |  |  |  |  |  | binds
3 | B3 |  |  | no significant binding | no significant binding |  | 
